Measured values published in US20020045192A1, “Arf and HDM2 interaction domains and methods of use thereof” (St. Jude Children's Research Hospital, priority 2001, published 2002).

T1: GFP-p19^Arf (Mus musculus, UniProt Q64364)
T1 construct: expressed in transfected cells; host or cells: NIH 3T3 Arf-/- cells
T1 sequence (Q64364 1-169): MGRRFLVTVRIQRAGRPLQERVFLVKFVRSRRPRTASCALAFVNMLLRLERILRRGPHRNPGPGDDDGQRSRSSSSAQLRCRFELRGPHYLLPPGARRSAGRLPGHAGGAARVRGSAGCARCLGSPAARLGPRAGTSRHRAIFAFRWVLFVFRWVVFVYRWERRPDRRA

T2: mArfN37 (Mus musculus, UniProt Q64364)
T2 construct: An N-terminal fragment of mouse p19^Arf corresponding to residues 1-37 (mArfN37) was purified in a similar manner; made in house
T2 sequence (Q64364 1-37 limits assumed): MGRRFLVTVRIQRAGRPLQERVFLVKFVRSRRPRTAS


Columns and labels:
[1] = biological target: T1, GFP-p19^Arf; experiment: Nuclear microinjection and live cell imaging of Texas Red labeled Hdm2 constructs in NIH 3T3 cells lacking Arf; type: cell-based; conditions: NIH 3T3 Arf-/- cells, nuclear microinjection
Procedure: Proteins for fluorescence microimaging studies were covalently modified using an amine-reactive, sulfosuccinimidyl ester of Texas Red™ (Molecular Probes, Inc., Cat. # C-1171). In brief, purified Hdm2-derived proteins were dialyzed into 100 mM sodium bicarbonate buffer, pH 8.3 at 2-4 mg/ml. The Texas Red™ dye was dissolved in dimethylsulfoxide at 10 mg/ml. Protein and dye 3:1 (vol:vol) were reacted for 1 hour at room temperature followed by purification using size-exclusion chromatography (NAP 5 G-25 columns, Amersham Pharmacia Biotech, Inc.). Labeled protein bands migrated more slowly than unlabeled protein in SDS-polyacrylamide gels consistent with the covalent attachment of dye.
NIH 3T3 Arf^−/− cells passage 10-15 were cultured in Dulbecco's modified Eagle's medium (Dulbecco's modified Eagle's medium (DMEM); Gibco-Invitrogen, Inc.), 10% fetal bovine serum (FBS) at 37° C., 7% CO2. 24 hours prior to transfection, cells were plated on 35 mm dishes coated with poly-D-Lysine (Mattek, Corp.) at a density of 3×10^4 cells per dish. […] An Axiovert 135 TV inverted fluorescence microscope with an automated stage controller (Carl Zeiss, Inc.) and circulating water bath heater (Fisher) was used for both microinjection and imaging. […]

[2] = biological target: T2, mArfN37; experiment: SPR binding of Hdm2 constructs and Hdm2 peptides to immobilized His-tagged mArfN37; conditions: His-mArfN37 captured by covalently linked His antibody
Procedure: Binding studies were performed using a Biacore 3000 surface plasmon resonance (SPR) instrument (Biacore, Inc.). A Tetra-His™ Antibody (Qiagen, Inc.; Cat. #34670) was covalently attached to a carboxymethylated gold surface (C-1 chip; Biacore, Inc.). The carboxymethyl groups on the surface were activated with N-ethyl-N′-(3-dimethylaminopropyl) carbodiimide (EDC) and N-hydroxysuccinimide (NHS) and the antibody was attached at pH 7.4 in 20 mM sodium phosphate buffer, 150 mM NaCl (PBS). Reactive sites remaining on the surface were blocked by reaction with ethanolamine. […] Binding was measured by flowing the non-His-tagged analyte through the reference and ligand-containing flow cells in sequence. […] Changes in the SPR response due to solvent differences and the injection process were monitored by injection of HBS-N buffer alone. […]
It has been previously shown that a fragment of mouse p19^Arf containing the N-terminal 37 amino acids (mArfN37) can (i) bind Hdm2, (ii) cause the relocalization of Hdm2 to nucleoli, and (iii) induce cell cycle arrest in MEFs [see, U.S. patent application Ser. No. 09/480,718, Filed Jan. […] However, because mArfN37 is a relatively small polypeptide, it was determined whether it could bind a correspondingly small segment of Hdm2. […]

Row | binding to His-tagged mArfN37 immobilized on the SPR biosensor surface [2] | Molecule | localization of Texas Red labeled Hdm2 construct when GFP-p19^Arf is expressed [1]
1 | – | Hdm2 277-350: Texas Red labeled Hdm2 deletion construct containing residues 277-350 (protein) QVTVYQAGESDTDSFEEDPEISLADYWKCTSCNEMNPPLPSHCNRCWALRENWLPEDKGKDKGEISEKAKLENS | localized in the nucleoplasm rather than in nucleoli
2 | bind tightly | Hdm2 210-275: Fragment of Hdm2 corresponding to residues 210-275 of SEQ ID NO:8 (protein, listed as Homo sapiens) SSSSESTGTPSNPDLDAGVSEHSGDWLDQDSVSDQFSVEFEVESLDSEDYSLSEEGQELSDEDDEV | nucleolar localization
